“Also recorded” adds a separate entry of the source.
Tests used:
Assay type in all cases: cell-based
[1] = tested on: Normal human epidermal keratinocytes (KC); assay: Cell spreading by F-actin staining, keratinocytes; settings: 3 h adhesion
Procedure: Cells were harvested at passage 3-8, seeded at 3500/cm^2 and allowed to adhere onto films for 20 min, 1 or 3 hours in chamber slides. After gentle washing, cells were fixed with 4% paraformaldehyde, permeabilized with 0.1% Triton X-100 in PBS, and blocked with 1% bovine serum albumin (BSA, AppliChem) in PBS. Secondary antibody was AlexaFlour488 goat anti mouse IgG (H+L), cross adsorbed (Invitrogen), used at 1:500. Phalloidin-AlexaFluor594 (Life Technologies) were used at 1:40 to detect filamentous actin. DAPI was used for nuclear staining. Slides were mounted in Fluorescence mounting medium (Dako, Copenhagen). The stained cells were analyzed using an inverted microscope (Nikon Eclipse Ti) at 4× and 10× magnification. Excitation at 563/45 nm and detection at 625/50 nm was used for red fluorescence, whereas excitation with 387/11 nm and detection at 447/60 nm was used to monitor blue fluorescence. By staining for F-actin, cell spreading and formation of stress fibers in KC after 3 h adhesion were investigated (FIG. 6).

[2] = tested on: Normal human epidermal keratinocytes (KC); assay: Formation of focal adhesions (F-actin/vinculin staining), keratinocytes
Procedure: Cells were harvested at passage 3-8, seeded at 3500/cm^2 and allowed to adhere onto films for 20 min, 1 or 3 hours in chamber slides. After gentle washing, cells were fixed with 4% paraformaldehyde, permeabilized with 0.1% Triton X-100 in PBS, and blocked with 1% bovine serum albumin (BSA, AppliChem) in PBS.
(§1) Primary antibody were used at the following concentrations in 1% BSA: mouse anti human vinculin (Sigma V9131) at 9.5 μg/ml, mouse-anti human beta1-integrin (activated conformation, clone HUTS-4) at 3.3 μg/mL, or mouse-anti human alpha5-integrin (ligand bound conformation, clone SNAKA-51) at 2.5 μg/mL, both Millipore.
Secondary antibody was AlexaFlour488 goat anti mouse IgG (H+L), cross adsorbed (Invitrogen), used at 1:500. Phalloidin-AlexaFluor594 (Life Technologies) were used at 1:40 to detect filamentous actin. DAPI was used for nuclear staining. Slides were mounted in Fluorescence mounting medium (Dako, Copenhagen).
For microscopic analysis of cell adhesion (formation of focal adhesions and stress fibers), a confocal microscope was used (Carl Zeiss LSM 710) at 10× and 63× magnification.
Quality of focal adhesions were graded from 1-4 regarding presence of small and dim focal adhesion (=1p), small and distinct focal adhesions (=2p), abundant focal adhesions (=3p) and large and bright focal adhesions (=4p), and multiplied with the portion of positive cells expressing this specific type of focal adhesions (0-4, where 0≈none of, 1≈one fourth of, 2≈half of, 3≈three fourths of, and 4≈all of the focal adhesion-positive cells.)
Formation of focal adhesions within the cells was analyzed after 3 h by staining for F-actin in combination with vinculin, which is one of the major components of the focal adhesion complex. Co-staining of F-actin and vinculin is thus a sign of integrin-involved, well established binding of cells to the underlying substrate. Focal adhesions appear as yellow-greenish elongations of the F-actin filaments, often situated close to the cell membrane.
The results from the analysis of formation and characterization of focal adhesions in KC after adherence for 3 h onto films of WT-silk (SEQ ID NO: 2) or silk functionalized with FNCC (SEQ ID NO: 13), FNVS (SEQ ID NO: 15), FNSS (SEQ ID NO: 14) or RGD (SEQ ID NO: 16) is presented in FIG. 7. Slides were scanned with a confocal microscope at 10× for overview (FIG. 7a) and at 63× for details (FIG. 7b). Two types of grading of the focal adhesions in the cells were performed.

integrin α5β1 = target: T1, integrin α5β1 (Homo sapiens, UniProt P05556+P08648); assay: Engagement of integrin α5β1 in KC (SNAKA-51/HUTS-4 staining); settings: KC adhering for 3 h
T1 construct: endogenous in cells; host or cells: human primary keratinocytes (KC)
T1 sequence (P08648 42-894 limits assumed): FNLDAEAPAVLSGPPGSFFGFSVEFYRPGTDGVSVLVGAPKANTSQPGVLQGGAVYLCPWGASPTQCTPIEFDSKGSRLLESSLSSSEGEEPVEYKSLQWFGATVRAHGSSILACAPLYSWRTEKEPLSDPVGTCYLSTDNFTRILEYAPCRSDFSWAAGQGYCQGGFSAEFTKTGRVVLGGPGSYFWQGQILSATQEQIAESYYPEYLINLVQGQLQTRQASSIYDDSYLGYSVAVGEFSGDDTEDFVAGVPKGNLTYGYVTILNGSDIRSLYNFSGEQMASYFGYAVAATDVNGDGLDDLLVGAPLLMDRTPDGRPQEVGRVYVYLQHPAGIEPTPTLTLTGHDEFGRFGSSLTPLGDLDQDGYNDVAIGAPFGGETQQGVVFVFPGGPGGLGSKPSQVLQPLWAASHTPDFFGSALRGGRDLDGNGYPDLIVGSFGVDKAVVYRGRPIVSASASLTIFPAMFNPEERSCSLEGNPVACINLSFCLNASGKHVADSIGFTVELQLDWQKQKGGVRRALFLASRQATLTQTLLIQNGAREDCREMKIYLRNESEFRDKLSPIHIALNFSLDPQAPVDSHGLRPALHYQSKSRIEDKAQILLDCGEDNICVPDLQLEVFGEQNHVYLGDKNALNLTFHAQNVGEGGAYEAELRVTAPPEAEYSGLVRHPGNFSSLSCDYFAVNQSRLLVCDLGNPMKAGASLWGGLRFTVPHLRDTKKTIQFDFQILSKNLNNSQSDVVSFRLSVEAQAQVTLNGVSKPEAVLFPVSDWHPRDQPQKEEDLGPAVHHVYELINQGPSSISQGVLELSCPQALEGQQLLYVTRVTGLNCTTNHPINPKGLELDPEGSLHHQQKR
T1 sequence (P08648 895-1049 partner limits assumed): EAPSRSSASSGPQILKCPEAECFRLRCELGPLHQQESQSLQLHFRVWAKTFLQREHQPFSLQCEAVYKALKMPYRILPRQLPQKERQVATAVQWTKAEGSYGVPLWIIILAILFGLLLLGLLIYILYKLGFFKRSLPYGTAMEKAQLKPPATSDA
T1 sequence (P05556 21-798): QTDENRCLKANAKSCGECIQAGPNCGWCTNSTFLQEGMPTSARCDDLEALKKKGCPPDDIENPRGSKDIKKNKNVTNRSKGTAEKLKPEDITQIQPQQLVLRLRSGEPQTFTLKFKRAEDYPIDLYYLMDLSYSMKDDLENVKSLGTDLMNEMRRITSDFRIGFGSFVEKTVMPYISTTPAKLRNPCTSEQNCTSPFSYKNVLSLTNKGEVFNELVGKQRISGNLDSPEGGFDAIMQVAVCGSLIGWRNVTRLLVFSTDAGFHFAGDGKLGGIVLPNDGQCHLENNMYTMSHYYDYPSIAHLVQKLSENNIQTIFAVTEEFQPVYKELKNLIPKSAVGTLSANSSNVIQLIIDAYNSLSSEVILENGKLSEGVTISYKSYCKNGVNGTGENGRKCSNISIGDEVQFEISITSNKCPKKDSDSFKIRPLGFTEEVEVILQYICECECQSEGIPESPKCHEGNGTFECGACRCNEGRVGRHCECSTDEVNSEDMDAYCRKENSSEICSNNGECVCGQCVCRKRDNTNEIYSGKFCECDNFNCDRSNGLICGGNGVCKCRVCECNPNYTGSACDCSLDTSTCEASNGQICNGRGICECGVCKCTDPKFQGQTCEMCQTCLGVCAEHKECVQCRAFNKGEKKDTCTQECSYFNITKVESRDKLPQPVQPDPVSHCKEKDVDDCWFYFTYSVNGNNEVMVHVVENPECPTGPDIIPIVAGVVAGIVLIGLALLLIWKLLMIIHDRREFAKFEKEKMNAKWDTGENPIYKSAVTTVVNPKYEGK
Procedure: as §1
Since the integrin α5β1 is known to selectively bind to fibronectin, we decided to investigate if this integrin is involved in the binding of KC to FNCC-silk (SEQ ID NO: 13). To do this, we selected two monoclonal antibodies, developed to specifically recognize the ligand bound conformation of α5 integrin (SNAKA-51) and the activated conformation of β1 integrin (HUTS-4), respectively, and used them in combination for staining of KC adhering to FNCC-silk for 3 h, in combination with staining with phalloidin for F-actin, as set out in Examples 6-7.

HaCaT Keratinocytes = assay: Cell culture on FNCC silk coatings; settings: coating 0.1 mg/ml
Procedure: (§2) After purification, solutions of FNCC-silk protein (SEQ ID NO: 13) were used to coat cell culture plates (Sarstedt, hydrophobic plates for suspension cells). Briefly, the protein solutions were diluted to 0.1 mg/ml in Tris buffer, and allowed to incubate at room temperature for 30 minutes before removal and wash.
(§3) Cells were harvested using trypsination (TrpLE) and seeded onto the FNcc-silk coatings at suitable cell density (3-10 000 cells/cm2). Cell growth was monitored with Alamar Blue cell viability assay (Molecular Probes) regularly (every 2-3 day). At the end point, after 7-14 days, Live/dead staining was performed.

[3] = tested on: Human Dermal Microvascular Endothelial Cells; assay: Cell culture on FNCC silk coatings; settings: coating 0.1 mg/ml
Procedure: as §2, §3

Human Dermal fibroblasts = assay: Cell culture on FNCC silk coatings; settings: coating 0.1 mg/ml
Procedure: as §2, §3

[4] = tested on: Human Skeletal Muscle Satellite Cells; assay: Cell culture on FNCC silk coatings; settings: coating 0.1 mg/ml
Procedure: as §2, §3

[5] = tested on: MIN6-m9 pancreatic cell line; assay: Cell culture on FNCC silk coatings; settings: coating 0.1 mg/ml
Procedure: as §2, §3

[6] = tested on: Mouse Mesenchymal stem cells; assay: Cell culture on FNCC silk coatings; settings: coating 0.1 mg/ml
Procedure: as §2, §3

B1: FNCC-silk: recombinant spider silk protein 4RepCT with N-terminal cysteine-looped RGD motif CTGRGDSPAC (SEQ ID NO: 10) (protein)
chain: GPNSCTGRGDSPACGSASGQGGYGGLGQGGYGQGAGSSAAAAAAAAAAAAGGQGGQGQGGYGQGSGGSAAAAAAAAAAAAAAAGRGQGGYGQGSGGNAAAAAAAAAAAAAAAGQGGQGGYGRQSQGAGSAAAAAAAAAAAAAAGSGQGGYGGQGQGGYGQSSASASAAASAASTVANSVSRLSSPSAVSRVSSAVSSLVSNGQVNMAALPNIISNISSSVSASAPGASGCEVIVQALLEVITALVQIVSSSSVGYINPSAVNQITNVVANAMAQVMG
modifications: cyclic disulfide loop; Fusion protein; DISULFID (5)..(14)
For B1, the “cell morphology (F-actin)” value [1] was “most cells had a nice spread-out morphology with distinct actin filaments”, the “spreading of KC (total cell area in 4× micrographs)” value ([1]; seeding 3 500/cm^2) was “significantly increased compared to FNSS-silk” and the “spreading of KC (total cell area in 4× micrographs)” value ([1]; seeding 3 500/cm^2, listed as FNCC) was “significantly increased spreading of KC compared to RGD-film (p<0.05) and WT-film (p<0.001)”. For the same molecule, the “time after seeding at which prominent focal adhesions appeared” value [2] was 20 min, the “percentage of cells exhibiting focal adhesions” value ([2]; 3 h adherence, 10× magnification) was “significant increase in percentage of cells expressing focal adhesions on FNCC-silk, compared to RGD and WT” and the “quality (grading) of focal adhesions” value ([2]; 3 h adherence, 63× magnification) was “tendency of more prominent focal adhesions in cells attached to FNCC-silk compared to the other silk types; also recorded: almost only prominent focal adhesions”. The “staining for ligand bound α5 integrin and activated β1 integrin” value (integrin α5β1) was “week but distinct staining pattern resembling the pattern seen when staining for vinculin”, the “growth profile (Alamar Blue)” value (HaCaT Keratinocytes; 7-14 days) was “positive growth profile” and the “viable cells at the end point (Live/dead staining)” value (“viable cells … (Live/dead staining)” for short) (HaCaT Keratinocytes; after 7-14 days) was greater than 80%. For the same molecule, the “growth profile (Alamar Blue)” value ([3]; 7-14 days) was “positive growth profile”, the “viable cells … (Live/dead staining)” value ([3]; after 7-14 days) was greater than 80% and the “growth profile (Alamar Blue)” value (Human Dermal fibroblasts; 7-14 days) was “positive growth profile”. For the same molecule, the “viable cells … (Live/dead staining)” value (Human Dermal fibroblasts; after 7-14 days) was greater than 80%, the “growth profile (Alamar Blue)” value ([4]; 7-14 days) was “positive growth profile” and the “viable cells … (Live/dead staining)” value ([4]; after 7-14 days) was greater than 80%. For the same molecule, the “growth profile (Alamar Blue)” value ([5]; 7-14 days) was “positive growth profile”, the “viable cells … (Live/dead staining)” value ([5]; after 7-14 days) was greater than 80% and the “growth profile (Alamar Blue)” value ([6]; 7-14 days) was “positive growth profile”. For the same molecule, the “viable cells … (Live/dead staining)” value ([6]; after 7-14 days) was greater than 80%.

Source: patent publication US10662230B2, “Cyclic RGD cell-binding motif and uses thereof” (Spiber Technologies AB, priority 2015, dated 2020)
